Legend:
GST-TARDBP (TDP-43) [1] = biological target: T1, GST-TARDBP (TDP-43) (human, UniProt Q13148 1-414); assay: EMSA; dose dependent; supershifted by anti-TARDBP (Fig. 6d); settings: protein: recombinant; tags: N-terminal GST (pGEX-4T-1); label: 3' biotin; single strand
GST-TARDBP (TDP-43) [2] = biological target: T1, GST-TARDBP (TDP-43); assay: EMSA; 2 ug protein; binding unaffected; settings: protein: recombinant; tags: N-terminal GST (pGEX-4T-1); label: 3' biotin; single strand
GST-TARDBP (TDP-43) [3] = biological target: T1, GST-TARDBP (TDP-43); assay: competition; 0-200 fold unlabeled competitor; settings: protein: recombinant; tags: N-terminal GST (pGEX-4T-1); single strand
GST-TARDBP (TDP-43) [4] = biological target: T1, GST-TARDBP (TDP-43); assay: EMSA; 2 ug protein; settings: protein: recombinant; tags: N-terminal GST (pGEX-4T-1); label: 3' biotin; single strand
GST-TARDBP (TDP-43) [5] = biological target: T1, GST-TARDBP (TDP-43); assay: EMSA; settings: protein: recombinant; tags: N-terminal GST (pGEX-4T-1); label: 3' biotin; single strand

T1 sequence (Q13148 whole entry): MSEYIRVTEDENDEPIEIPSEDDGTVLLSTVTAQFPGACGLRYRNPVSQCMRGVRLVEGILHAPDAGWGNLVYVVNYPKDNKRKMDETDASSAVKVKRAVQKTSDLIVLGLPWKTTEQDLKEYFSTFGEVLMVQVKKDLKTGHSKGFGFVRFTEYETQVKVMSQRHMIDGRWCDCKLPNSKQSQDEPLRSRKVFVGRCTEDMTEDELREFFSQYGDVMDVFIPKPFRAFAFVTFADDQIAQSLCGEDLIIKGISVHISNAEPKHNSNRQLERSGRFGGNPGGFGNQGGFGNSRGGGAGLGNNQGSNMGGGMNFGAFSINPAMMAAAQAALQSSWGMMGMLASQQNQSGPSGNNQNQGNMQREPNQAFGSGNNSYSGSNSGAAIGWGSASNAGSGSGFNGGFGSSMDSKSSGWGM

| Binder | binding result (GST-TARDBP (TDP-43) [4]) | binding result (GST-TARDBP (TDP-43) [5]) | also measured |
| --- | --- | --- | --- |
| ATGAGATGATTAGGCAGAGGTGAAAAAGTTGCATGGTGCTGGTGAA (ssDNA) [AS probe 1 (WT, nt1804-1849)] | – | – | binding result (GST-TARDBP (TDP-43) [1]): binds |
| ATGAGATGATTAGGCAGAGGTGCTAGCGTTGCATGGTGCTGGTGAA (ssDNA) [AS Mutant 3 (central A5 repeat mutated)] | – | – | binding result (GST-TARDBP (TDP-43) [2]): binds |
| ATGAGATGATTAGGCAGAGGTGAAAAAGTTGCATGGTGCTGGTGAA (ssDNA) [AS probe 1 unlabeled competitor] | – | – | binding result (GST-TARDBP (TDP-43) [3]): binds |
| ATCAGACGACTAGGCAGAGGTGAAAAAGTTGCATGGTGCTGGTGAA (ssDNA) [AS Mutant 1] | no binding | – | – |
| ATGAGATGATTAGGCAGAGGTGAAAAAGTTGCATAGTACTCGTGAA (ssDNA) [AS Mutant 5] | no binding | – | – |
| ATGAGATGATTAAGCATAGGCGAAAAAGTTGCATGGTGCTGGTGAA (ssDNA) [AS Mutant 2] | no binding | – | – |
| ATGAGATGATTAGGCAGAGGTGAAAAAGCTACATAGTACTGGTGAA (ssDNA) [AS Mutant 4] | no binding | – | – |
| AAAGTTGCATGGTGCTGGTGAACA (ssDNA) [fragment s4] | – | no binding | – |
| GGTGAAAAAGTTGCATGGTGCTGGTGAA (ssDNA) [fragment s2] | – | no binding | – |
| CTGGTGAACAGACCAATTTATGCCTACAGCCTCCTAGTACAAAGAC (ssDNA) [AS probe 2 (adjacent)] | no binding | – | – |
| CAGAGGTGAAAAAGTTGCATGGTG (ssDNA) [fragment s3] | – | no binding | – |
| ATGAACATGAGATGATTAGGCAGAGGTG (ssDNA) [fragment s1] | – | no binding | – |

— article PMC6560085
